From patent publication US20250144178A1 (KANAPH THERAPEUTICS, published 2025)
One block for each binder: values may come before it.

Assays:
[1] = target: IL-12 receptor of human T cells (human, UniProt P42701 24-662; Q99665 24-862); assay: cell-based or functional assay
[2] = target: T1, human FAP (fibroblast activation protein alpha) overexpressed in HEK293 cells (HEK293-hFAP) (human, UniProt Q12884 1-760); assay: flow cytometry on HEK293-hFAP cells, detection with anti-human IgG antibody
T1 construct: whole, on cells; also called human FAP-expressing cell line
T1 sequence (looked up): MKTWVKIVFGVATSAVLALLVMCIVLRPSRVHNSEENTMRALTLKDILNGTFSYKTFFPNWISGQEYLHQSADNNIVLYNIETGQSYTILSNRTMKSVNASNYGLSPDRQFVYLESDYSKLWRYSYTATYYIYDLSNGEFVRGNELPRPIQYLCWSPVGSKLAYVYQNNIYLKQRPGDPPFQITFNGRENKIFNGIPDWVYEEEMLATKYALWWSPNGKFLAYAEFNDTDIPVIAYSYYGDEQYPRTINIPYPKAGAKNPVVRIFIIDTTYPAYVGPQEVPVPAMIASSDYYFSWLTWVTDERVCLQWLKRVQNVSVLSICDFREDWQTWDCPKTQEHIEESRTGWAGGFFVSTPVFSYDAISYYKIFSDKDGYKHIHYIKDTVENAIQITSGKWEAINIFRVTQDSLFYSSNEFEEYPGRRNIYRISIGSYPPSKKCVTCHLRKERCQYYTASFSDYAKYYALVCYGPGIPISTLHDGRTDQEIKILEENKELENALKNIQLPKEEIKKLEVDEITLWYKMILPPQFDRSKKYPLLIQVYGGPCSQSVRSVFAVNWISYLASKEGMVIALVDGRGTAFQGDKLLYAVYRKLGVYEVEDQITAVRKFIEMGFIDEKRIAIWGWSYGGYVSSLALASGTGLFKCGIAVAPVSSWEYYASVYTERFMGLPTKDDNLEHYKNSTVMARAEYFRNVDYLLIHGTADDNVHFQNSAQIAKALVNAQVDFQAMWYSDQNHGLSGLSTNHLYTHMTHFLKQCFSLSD
Procedure: (§1) Specifically, the cell line was prepared by suspending in a FACS buffer solution at 1×10⁵ cells/100 μl, and treated with 1 μg each of T1.12, T1.01, T1.02 and T1.03. The cells were washed twice with a FACS buffer solution. The cells were stained with an anti-human IgG antibody (Biolegend). The negative control was stained only with an anti-human IgG antibody (Biolegend). The expression rates of the stained cells were measured using BD LSR and analyzed using a FlowJo software.

[3] = target: T1, human FAP (fibroblast activation …); assay: flow cytometry on HEK293-hFAP cells, 1 µg protein per 1x10^5 cells, anti-human IgG detection
Procedure: as §1

[4] = target: T2, IL-12 receptor beta 1-biotin (recombinant human IL-12 receptor protein) (human, UniProt P42701 24-545, limits assumed, biotin (site not stated)); assay: ELISA, fusion protein coated in serial dilution, 1 nM IL-12Rβ1-biotin, streptavidin-HRP, OD at 450 nm
T2 construct: Bought reagent; also called IL-12Rβ1-Biotin
Procedure: (§2) (ii) The wells were washed with a wash solution, and then blocking was performed for 1 hour with 1% BSA (Bovine serum albumin, Sigma) solution.
(§3) (iii) The wells were washed with a wash solution, and then treated with 1 nM IL-12 receptor beta 1-biotin (IL-12Rβ1-Biotin; Acrobiosystems, Newark, USA) for 2 hours.
(§4) (iv) The wells were washed with a wash solution, and then treated with streptavidin-HRP for 20 minutes.

recombinant human FAP [5] = target: T3, recombinant human FAP (human, UniProt Q12884 26-760); assay: SPR, fusion protein captured by anti-human IgG (Fc) on a CM5 chip, hFAP his as analyte 0.78125-50 nM, 1:1 binding model
T3 construct: Soluble analyte in SPR; The description calls FAP a homodimer; also called rhFAP
T3 sequence (looked up): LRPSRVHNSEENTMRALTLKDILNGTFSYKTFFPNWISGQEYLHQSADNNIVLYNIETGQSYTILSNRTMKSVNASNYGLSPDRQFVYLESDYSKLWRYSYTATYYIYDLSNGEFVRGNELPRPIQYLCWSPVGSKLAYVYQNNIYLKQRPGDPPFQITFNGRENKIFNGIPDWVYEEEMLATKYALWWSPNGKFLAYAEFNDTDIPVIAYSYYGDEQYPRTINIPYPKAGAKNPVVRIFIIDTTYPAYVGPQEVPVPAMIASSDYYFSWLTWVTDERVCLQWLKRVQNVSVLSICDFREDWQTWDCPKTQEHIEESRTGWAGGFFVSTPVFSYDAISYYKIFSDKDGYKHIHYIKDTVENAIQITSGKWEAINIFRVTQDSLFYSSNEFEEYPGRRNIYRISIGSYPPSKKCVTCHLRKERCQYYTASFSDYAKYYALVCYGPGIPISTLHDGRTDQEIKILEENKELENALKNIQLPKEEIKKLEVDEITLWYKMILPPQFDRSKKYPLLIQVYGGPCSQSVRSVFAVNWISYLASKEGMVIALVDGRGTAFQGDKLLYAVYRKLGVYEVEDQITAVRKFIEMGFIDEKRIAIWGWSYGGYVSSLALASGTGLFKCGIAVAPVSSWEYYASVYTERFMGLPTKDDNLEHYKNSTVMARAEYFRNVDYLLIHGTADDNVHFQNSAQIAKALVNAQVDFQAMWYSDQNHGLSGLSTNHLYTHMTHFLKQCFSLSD

[6] = target: T2, IL-12 receptor beta 1-biotin …; assay: ELISA, protein coated in serial dilution, 1 nM IL-12Rβ1-biotin, streptavidin-HRP, OD at 450 nm
Procedure: as §2, §3, §4

recombinant human FAP [7] = target: T3, recombinant human FAP; assay: SPR, fusion protein captured by anti-human IgG (Fc) on a CM5 chip, human FAP as analyte 1.5625-200 nM, 1:1 binding model
Procedure: Specifically, the surface of the CM5 chip was activated with a 1:1 mixture of […] NHS (N-hydroxysuccinimide) and […] EDC (1-Ethyl-3-(3-dimethylaminopropyl) carbodiimide), and 25 μg/ml of anti-human IgG (Fc) antibody was immobilized for 400 seconds at a rate of 10 μl/min. The remaining active ester groups were blocked with 1 M ethanolamine. T1.01, T1.02 and T1.03 were diluted to 2 μg/ml and reacted on the CM5 chip immobilized with the anti-human IgG (Fc) antibody. The recombinant human FAP was diluted to 200 nM in 1×HBS-EP+buffer solution and diluted by serial dilution. The diluted recombinant human FAP was reacted at a rate of 30 μl/min. The association and dissociation times were 180 seconds and 400 seconds, respectively. After the dissociation, stabilization was performed for 60 seconds, and then a regeneration was performed for 30 seconds with a 10 mM glycine pH 1.5 solution at a rate of 30 μl/min.

Sequence of IL-12 receptor of human T cells (Q99665 24-862, chain 2 of 2, other chains not shown): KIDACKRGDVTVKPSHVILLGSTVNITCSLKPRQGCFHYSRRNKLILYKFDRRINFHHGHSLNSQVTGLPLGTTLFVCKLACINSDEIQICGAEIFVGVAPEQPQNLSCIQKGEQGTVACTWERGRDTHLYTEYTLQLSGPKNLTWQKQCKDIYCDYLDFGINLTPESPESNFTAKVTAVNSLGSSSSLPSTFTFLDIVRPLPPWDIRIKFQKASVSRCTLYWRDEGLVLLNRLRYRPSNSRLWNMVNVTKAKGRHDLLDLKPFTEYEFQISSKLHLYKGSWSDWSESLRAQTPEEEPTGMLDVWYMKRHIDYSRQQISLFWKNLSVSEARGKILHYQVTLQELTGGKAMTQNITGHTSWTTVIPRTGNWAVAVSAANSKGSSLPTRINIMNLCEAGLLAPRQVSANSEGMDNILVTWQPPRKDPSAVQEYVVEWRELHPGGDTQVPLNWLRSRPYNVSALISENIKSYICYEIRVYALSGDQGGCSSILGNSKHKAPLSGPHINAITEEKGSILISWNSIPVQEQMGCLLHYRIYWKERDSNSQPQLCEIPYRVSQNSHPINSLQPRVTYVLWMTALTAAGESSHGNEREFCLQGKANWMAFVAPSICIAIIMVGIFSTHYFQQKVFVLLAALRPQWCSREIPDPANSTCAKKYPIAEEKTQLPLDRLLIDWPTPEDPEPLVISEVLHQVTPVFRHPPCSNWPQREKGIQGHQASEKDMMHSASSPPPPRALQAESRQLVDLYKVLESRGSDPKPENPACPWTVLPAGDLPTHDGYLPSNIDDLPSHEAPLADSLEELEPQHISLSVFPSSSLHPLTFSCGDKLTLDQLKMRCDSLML

B1: T1.02 (anti-hu FAP/hu IL-12 mut1, hu IgG1 DANG) (bispecific antibody)
heavy: QVQLVQSGAEVKKPGASVKVSCKTSRYTFTEYTIHWVRQAPGQRLEWIGGINPNNGIPNYNQKFKGRVTITVDTSASTAYMELSSLRSEDTAVYYCARRRIAYGYDEGHAMDYWGQGTLVTVSSASTKGPSVFPLAPSSKSTSGGTAALGCLVKDYFPEPVTVSWNSGALTSGVHTFPAVLQSSGLYSLSSVVTVPSSSLGTQTYICNVNHKPSNTKVDKKVEPKSCDKTHTCPPCPAPELLGGPSVFLFPPKPKDTLMISRTPEVTCVVVAVSHEDPEVKFNWYVDGVEVHNAKTKPREEQYGSTYRVVSVLTVLHQDWLNGKEYKCKVSNKALPAPIEKTISKAKGQPREPQVYTLPPSRDELTKNQVSLWCLVKGFYPSDIAVEWESNGQPENNYKTTPPVLDSDGSFFLYSKLTVDKSRWQQGNVFSCSVMHEALHNHYTQKSLSLSPGK
light: not shown
chain: not shown
notes: Knob-in-hole heterodimer
fold change of the p-STAT4 EC50 with low molecular weight heparin against without, activated human T cells [1]: 5.5 times
half maximal effective concentration (EC50) of p-STAT4 (Tyr693), AlphaLISA, activated human T cells [1]: 56.5 pM
percent of cells in the positive gate (hFAP-PE) [2]: 99.8%
percent of cells bound [3]: ≥ 99%
EC50 (read off the curve) [4]: ~20 nM
Kd (recombinant human FAP [5]): 0.595 nM
koff (recombinant human FAP [5]): 0.000139 s⁻¹
kon (recombinant human FAP [5]): 235000 M⁻¹ s⁻¹

B4: T1.01 (anti-hu FAP/hu IL-12, hu IgG1 DANG) (bispecific antibody)
heavy: B1 heavy
light: not shown
chain: not shown
notes: Knob-in-hole heterodimer: one anti-FAP Fab arm and one single-chain human IL-12 (p40-linker-p35) Fc arm
fold change of the p-STAT4 EC50 with low molecular weight heparin against without, activated human T cells [1]: 9.4 times
half maximal effective concentration (EC50) of p-STAT4 (Tyr693), AlphaLISA, activated human T cells [1]: 14.5 pM
percent of cells in the positive gate (hFAP-PE) [2]: 99.8%
percent of cells bound [3]: ≥ 99%
EC50 (read off the curve) [4]: ~20 nM
Kd (recombinant human FAP [5]): 0.588 nM
koff (recombinant human FAP [5]): 0.000152 s⁻¹
kon (recombinant human FAP [5]): 258000 M⁻¹ s⁻¹

Other lines, results leading:

percent of cells in the positive gate (hFAP-PE) [2]: 99.3%
percent of cells bound [3]: ≥ 99%
binding result [6]: no binding (tested: 10^5 pM)
B2: T1.12 (anti-hu FAP/null, hu IgG1 DANG) (antibody)
heavy: B1 heavy
light: not shown
chain: not shown
notes: One-armed anti-FAP antibody without IL-12; used as the control for IL-12 activity

fold change of the p-STAT4 EC50 with low molecular weight heparin against without, activated human T cells [1]: 4 times
half maximal effective concentration (EC50) of p-STAT4 (Tyr693), AlphaLISA, activated human T cells [1]: 147 pM
percent of cells in the positive gate (hFAP-PE) [2]: 99.3%
percent of cells bound [3]: ≥ 99%
EC50 (read off the curve) [4]: ~20 nM
Kd (recombinant human FAP [7]): 1.3 nM
koff (recombinant human FAP [7]): 0.000124 s⁻¹
kon (recombinant human FAP [7]): 94900 M⁻¹ s⁻¹
B3: T1.03 (anti-hu FAP/hu IL-12 mut2, hu IgG1 DANG) (bispecific antibody)
heavy: B1 heavy
light: not shown
chain: not shown
notes: Knob-in-hole heterodimer
